The source of these data is publication PMC7170535, “Inter-α-inhibitor heavy chain-1 has an integrin-like 3D structure mediating immune regulatory activities and matrix stabilization during ovulation” (The Journal of Biological Chemistry, 2020).

Where a chain is given by its changes, count along the chain named.

To fix the notation:
T1: recombinant inter-α-inhibitor heavy chain 1 (rHC1), D298A MIDAS mutant (human, UniProt P19827 35-672, D298A)
T1 construct: source: expressed and purified as described previously (58)
T1 sequence (looked up): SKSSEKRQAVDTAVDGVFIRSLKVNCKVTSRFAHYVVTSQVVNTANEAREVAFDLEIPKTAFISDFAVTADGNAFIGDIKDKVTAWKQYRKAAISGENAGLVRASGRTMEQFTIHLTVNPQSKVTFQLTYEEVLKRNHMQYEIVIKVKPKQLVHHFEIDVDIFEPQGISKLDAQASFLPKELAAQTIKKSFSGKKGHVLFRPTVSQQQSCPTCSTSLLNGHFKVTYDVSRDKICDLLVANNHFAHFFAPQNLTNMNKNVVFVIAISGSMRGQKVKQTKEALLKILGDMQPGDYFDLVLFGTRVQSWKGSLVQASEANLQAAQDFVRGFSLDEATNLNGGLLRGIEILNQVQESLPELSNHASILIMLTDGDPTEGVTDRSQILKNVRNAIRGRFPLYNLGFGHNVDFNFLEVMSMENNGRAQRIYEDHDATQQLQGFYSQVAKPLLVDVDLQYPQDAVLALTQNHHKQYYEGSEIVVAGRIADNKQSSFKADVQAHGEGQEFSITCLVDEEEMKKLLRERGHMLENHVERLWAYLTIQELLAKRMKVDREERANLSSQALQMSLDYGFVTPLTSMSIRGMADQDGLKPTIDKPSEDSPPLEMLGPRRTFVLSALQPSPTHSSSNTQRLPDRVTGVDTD

B1: vitronectin (natural protein, UniProt P04004 20-478, looked up)
chain: DQESCKGRCTEGFNVDKKCQCDELCSYYQSCCTDYTAECKPQVTRGDVFTMPEDEYTVYDDGEEKNNATVHEQVGGPSLTSDLQAQSKGNPEQTPVLKPEEEAPAPEVGASKPEGIDSRPETLHPGRPQPPAEEELCSGKPFDAFTDLKNGSLFAFRGQYCYELDEKAVRPGYPKLIRDVWGIEGPIDAAFTRINCQGKTYLFKGSQYWRFEDGVLDPDYPRNISDGFDGIPDNVDAALALPAHSYSGRERVYFFKGKQYWEYQFQHQPSQEECEGSSLSAVFEHFAMMQRDSWEDIFELLFWGRTSAGTRQPQFISRDWHGVPGQVDAAMAGRIYISGMAPRPSLAKKQRFRHRNRKGYRSQRGHSRGRNQNSRRPSRATWLSLFSSEESNLGANNYDDYRMDWLVPATCEPIQSVFFFSGDKYYRVNLRTRRVDTVDPPYPRSIAQYWLGCPAPGHL
notes: Vitronectin; source: bought: PeproTech
B2: recombinant inter-α-inhibitor heavy chain 1 (rHC1), ΔvWFA mutant lacking residues 288-478 (natural protein, human, UniProt P19827 35-672, looked up)
chain: SKSSEKRQAVDTAVDGVFIRSLKVNCKVTSRFAHYVVTSQVVNTANEAREVAFDLEIPKTAFISDFAVTADGNAFIGDIKDKVTAWKQYRKAAISGENAGLVRASGRTMEQFTIHLTVNPQSKVTFQLTYEEVLKRNHMQYEIVIKVKPKQLVHHFEIDVDIFEPQGISKLDAQASFLPKELAAQTIKKSFSGKKGHVLFRPTVSQQQSCPTCSTSLLNGHFKVTYDVSRDKICDLLVANNHFAHFFAPQNLTLLVDVDLQYPQDAVLALTQNHHKQYYEGSEIVVAGRIADNKQSSFKADVQAHGEGQEFSITCLVDEEEMKKLLRERGHMLENHVERLWAYLTIQELLAKRMKVDREERANLSSQALQMSLDYGFVTPLTSMSIRGMADQDGLKPTIDKPSEDSPPLEMLGPRRTFVLSALQPSPTHSSSNTQRLPDRVTGVDTD
notes: source: expressed and purified as described previously (58)
B3: TGFβ2-LAP, small latent complex of TGFβ2 (complex)
chain 1: LSTCSTLDMDQFMRKRIEAIRGQILSKLKLTSPPEDYPEPEEVPPEVISIYNSTRDLLQEKASRRAAACERERSDEEYYAKEVYKIDMPPFFPSENAIPPTFYRPYFRIVRFDVSAMEKNASNLVKAEFRVFRLQNPKARVPEQRIELYQILKSKDLTSPTQRYIDSKVVKTRAEGEWLSFDVTDAVHEWLHHKDRNLGFKISLHCPCCTFVPSNNYIIPNKSEELEARFAGIDGTSTYTSGDQKTIKSTRKKNSGKTPHLLLMLLPSYRLESQQTNRRKKR
chain 2: ALDAAYCFRNVQDNCCLRPLYIDFKRDLGWKWIHEPKGYNANFCAGACPYLWSSDTQHSRVLSLYNTINPEASASPCCVSQDLEPLTILYYIGKTPKIEQLSNMIVKSCKCS
B4: recombinant inter-α-inhibitor heavy chain 1 (rHC1), wild type (natural protein, human, UniProt P19827 35-672, looked up)
chain: T1 sequence (looked up) with A264D
notes: Monomer in EDTA, monomer-dimer equilibrium in Mg2+ or Mn2+; also called rHC1 (WT); WT rHC1; source: expressed and purified as described previously (58)
B5: fibronectin type III repeats 13 and 14 (cFN13–14) (domain or fragment, human, UniProt P02751-1 1812-1991, looked up)
chain: ENVSPPRRARVTDATETTITISWRTKTETITGFQVDAVPANGQTPIQRTIKPDVRSYTITGLQPGTDYKIYLYTLNDNARSSPVVIDASTAIDAPSNLRFLATTPNSLLVSWQPPRARITGYIIKYEKPGSPPREVVPRPRPGVTEATITGLEPGTEYTIYVIALKNNQKSEPLIGRKKT
notes: Fibronectin, human, amino acid residues 1812-1991 (type III repeats 13 and 14); Mass spectrometry matched the construct with the N-terminal methionine removed; the monomeric protein was separated from dimeric cFN13–14 on heparin; source: E. coli BL21(DE3) pLysS, purified (nickel Sepharose, HisTrap HP, HiTrap heparin HP; monomeric form)
B6: TGFβ3-LAP, small latent complex of TGFβ3 (complex)
chain 1: LSTCTTLDFGHIKKKRVEAIRGQILSKLRLTSPPEPTVMTHVPYQVLALYNSTRELLEEMHGEREEGCTQENTESEYYAKEIHKFDMIQGLAEHNELAVCPKGITSKVFRFNVSSVEKNRTNLFRAEFRVLRVPNPSSKRNEQRIELFQILRPDEHIAKQRYIGGKNLPTRGTAEWLSFDVTDTVREWLLRRESNLGLEISIHCPCHTFQPNGDILENIHEVMEIKFKGVDNEDDHGRGDLGRLKKQKDHHNPHLILMMIPPHRLDNPGQGGQRKKR
chain 2: ALDTNYCFRNLEENCCVRPLYIDFRQDLGWKWVHEPKGYYANFCSGPCPYLRSADTTHSTVLGLYNTLNPEASASPCCVPQDLEPLTILYYVGRTPKVEQLSNMVVKSCKCS

Series [1] deals with B4. Briefly: SPR; 1,500 RU rHC1 proteins immobilised on a C1 chip by amide cross-linking; ligand as analyte; HEPES-buffered saline pH 7.5, 0.05% Tween 20, 2 mM Mg2+, 2 mM Mn2+; 50 μl/min; multicycle kinetics, 1:1 Langmuir. Particulars: both partners purified. (In general: SPR reads the build-up and loss of mass on a sensor chip optically.)
Series [2] concerns the target T1, recombinant inter-α-inhibitor heavy …. The series is described as above. Particulars: both partners purified.
Series [3] concerns the target B4. Briefly: SPR; 1,500 RU rHC1 proteins immobilised on a C1 chip by amide cross-linking; ligand as analyte; HEPES-buffered saline pH 7.5, 0.05% Tween 20, 10 mM EDTA; 50 μl/min; multicycle kinetics, 1:1 Langmuir. Particulars: both partners purified.
Series [4] addresses T1, recombinant inter-α-inhibitor heavy …. The description is as above. The conditions noted are these: both partners purified.
The series “vitronectin” deals with B1. The description is as above. Particulars: both partners purified.
Series [5] deals with the molecule itself. Description: SAXS; rHC1 proteins at 1.25, 2.5 and 5.0 mg/ml in HEPES-buffered saline pH 7.5 with 5 mM MgCl2.
Series [6] deals with the molecule itself. Briefly: AUC; equilibrium AUC; rHC1 at 4, 11 and 22 μM with 0.1, 0.5, 1 or 5 mM MgCl2; 20 °C; global fit to a monomer–dimer model; dimer to monomers.
Series [7] concerns the target B2. Briefly: SPR; 1,000 RU rHC1 proteins immobilised on a C1 chip; cFN13–14 at 7.5-120 nM as analyte; HEPES-buffered saline pH 7.4, 0.05% Tween 20, no added metal ions or EDTA; 30 μl/min; single cycle kinetics, 1:1 Langmuir. Particulars: both partners purified.
Series [8] concerns the target B4. The series is described as above. The conditions noted are these: both partners purified.
For series [9], the target named is T1, recombinant inter-α-inhibitor heavy …. The description is as above. Particulars: both partners purified.

In general, Kd refers to the free concentration of one partner at which half of the binding sites on the other are occupied at equilibrium, for simple one-to-one binding. Turning to B1, the Kd is 0.118 nM in series [1], 0.096 nM in series [2], 0.192 nM in [3] and 0.138 nM in series [4].

With B2, the Kd in the series with vitronectin worked out at 0.097 nM.

Take B3: the results for the Kd in [1] and in [2] were 8.8 nM and 12.9 nM, respectively.

As usually defined, the stoichiometry N is a count of units in the complex or per binding partner. On to B4, for which the “stoichiometry N” value in series [5] was 2. This molecule showed a Kd in series [6] of 35300 nM.

Regarding B5, the Kd was determined as 16.3 nM in series [7], 14 nM in series [8] and 15.7 nM in [9].

As for B6, the Kd in series [1] worked out at 9.9 nM; in series [2], 3.1 nM.
